Test results reported in publication PMC6092330.

Biological target: acid-purified histones (human (endogenous in TE-7))

B1: recombinant GST-tagged full-length IL-33 (H00090865-P01, Abnova) (natural protein)
chain: MKPKMKYSTNKISTAKWKNTASKALCFKLGKSQQKAKEVCPMYFMKLRSGLMIKKEACYFRRETTKRPSLKTGRKHKRHLVLAACQQQSTVECFAFGISGVQKYTRALHDSSITGISPITEYLASLSTYNDQSITFALEDESYEIYVEDLKKDEKKDKVLLSYYESQHPSNESGDGVDGKMLMVTLSPTKDFWLHANNKEHSVELHKCEKPLPDQAFFVLHNMHSNCVSFECKTDPGVFIGVKDNHLALIKVDSSENLCTENILFKLSET
  CCL2 secretion by HMC-1 mast cells (42-cytokine multiplex array), fold change against untreated, 23.4 nM recombinant WT IL-33 without and with 6.7 µg/mL acid-purified histones: 822 fold
